Reference: patent publication US20070224188A1

Biological target: biotin-labeled soluble FcRn
Test: FcRn ELISA pH 6.0

Substance | FcRn pH6.0 (% of wild type) | FcRn6.0 (% of wild type)
anti-CD20 IgG1 D249M (antibody) | 50 | –
anti-CD20 IgG1 S254K (antibody) | 9 | –
anti-CD20 IgG1 E430V (antibody) | 281 | –
anti-CD20 IgG1 A327T (antibody) | 54 | –
anti-CD20 IgG1 K248W (antibody) | 30 | –
anti-CD20 IgG1 L251H (antibody) | 46 | –
anti-CD20 IgG1 S267K (antibody) | 102 | –
anti-CD20 IgG1 E283N (antibody) | 119 | –
anti-CD20 IgG1 P247S (antibody) | 81 | –
anti-CD20 IgG1 S254L (antibody) | 74 | –
anti-CD20 IgG1 T256H (antibody) | 26 | –
anti-CD20 IgG1 H429M (antibody) | 83 | –
anti-CD20 IgG1 D249E (antibody) | 78 | –
anti-CD20 IgG1 P238G (antibody) | 66 | –
anti-CD20 IgG1 S442K (antibody) | 138 | –
anti-CD20 IgG1 272R279L (antibody) | – | 156
anti-CD20 IgG1 A339Y (antibody) | 92 | –
anti-CD20 IgG1 K326W (antibody) | 93 | –
anti-CD20 IgG1 279D307E (antibody) | – | 522
anti-CD20 IgG1 A339D (antibody) | 80 | –
anti-CD20 IgG1 E382M (antibody) | 135 | –
anti-CD20 IgG1 Q311G (antibody) | 58 | –
anti-CD20 IgG1 T307E (antibody) | 492 | –
anti-CD20 IgG1 V279Y (antibody) | 139 | –

Substance | FcRn pH6.0 (% of wild type) | FcRn6.0 (% of wild type)
anti-CD20 IgG1 E380N (antibody) | 142 | –
anti-CD20 IgG1 Q438G (antibody) | 98 | –
anti-CD20 IgG1 V279K (antibody) | 79 | –
anti-CD20 IgG1 P257I (antibody) | 1020 | –
anti-CD20 IgG1 E283P (antibody) | 136 | –
anti-CD20 IgG1 D376I (antibody) | 144 | –
anti-CD20 IgG1 E293V (antibody) | 127 | –
anti-CD20 IgG1 V379Q (antibody) | 85 | –
anti-CD20 IgG1 E382Q (antibody) | 162 | –
anti-CD20 IgG1 Y436I (antibody) | 194 | –
anti-CD20 IgG1 D376V (antibody) | 251 | –
anti-CD20 IgG1 E430S (antibody) | 183 | –
anti-CD20 IgG1 G341L (antibody) | 54 | –
anti-CD20 IgG1 K288P (antibody) | 119 | –
anti-CD20 IgG1 N315P (antibody) | 14 | –
anti-CD20 IgG1 I332T (antibody) | 100 | –
anti-CD20 IgG1 T256I (antibody) | 72 | –
anti-CD20 IgG1 E382A (antibody) | 103 | –
anti-CD20 IgG1 N315L (antibody) | 103 | –
anti-CD20 IgG1 A339T (antibody) | 138 | –
anti-CD20 IgG1 P343H (antibody) | 191 | –
anti-CD20 IgG1 D376A (antibody) | 155 | –
anti-CD20 IgG1 Y373I (antibody) | 73 | –
anti-CD20 IgG1 E430N (antibody) | 171 | –

Substance | FcRn pH6.0 (% of wild type) | FcRn6.0 (% of wild type)
anti-CD20 IgG1 Y373R (antibody) | 107 | –
anti-CD20 IgG1 256P440Y (antibody) | – | 122
anti-CD20 IgG1 Y373M (antibody) | 53 | –
anti-CD20 IgG1 T256A (antibody) | 160 | –
anti-CD20 IgG1 S254I (antibody) | 25 | –
anti-CD20 IgG1 330K332D (antibody) | – | 88
anti-CD20 IgG1 E283M (antibody) | 95 | –
anti-CD20 IgG1 Y436L (antibody) | 172 | –
anti-CD20 IgG1 L314I (antibody) | 86 | –
anti-CD20 IgG1 251F376I (antibody) | – | 66
anti-CD20 IgG1 247L251F330R332E (antibody) | – | 50
anti-CD20 IgG1 376V434H (antibody) | – | 382
anti-CD20 IgG1 Y373G (antibody) | 38 | –
anti-CD20 IgG1 P247Y (antibody) | 7 | –
anti-CD20 IgG1 P247G (antibody) | 75 | –
anti-CD20 IgG1 H268K (antibody) | 86 | –
anti-CD20 IgG1 S254A (antibody) | 7 | –
anti-CD20 IgG1 S254N (antibody) | 8 | –
anti-CD20 IgG1 E258D (antibody) | 361 | –
anti-CD20 IgG1 V279I (antibody) | 83 | –
anti-CD20 IgG1 N315F (antibody) | 51 | –
anti-CD20 IgG1 P343K (antibody) | 232 | –
anti-CD20 IgG1 R255N (antibody) | 27 | –
anti-CD20 IgG1 S440L (antibody) | 126 | –

Substance | FcRn pH6.0 (% of wild type) | FcRn6.0 (% of wild type)
anti-CD20 IgG1 257I434H (antibody) | – | 472
anti-CD20 IgG1 D376L (antibody) | 78 | –
anti-CD20 IgG1 A339L (antibody) | 83 | –
anti-CD20 IgG1 Q311P (antibody) | 89 | –
anti-CD20 IgG1 S267G (antibody) | 86 | –
anti-CD20 IgG1 247L332E (antibody) | – | 78
anti-CD20 IgG1 A339W (antibody) | 156 | –
anti-CD20 IgG1 P329Y (antibody) | 107 | –
anti-CD20 IgG1 Q311L (antibody) | 186 | –
anti-CD20 IgG1 D265K (antibody) | 107 | –
anti-CD20 IgG1 E272N (antibody) | 110 | –
anti-CD20 IgG1 E283W (antibody) | 117 | –
anti-CD20 IgG1 D376P (antibody) | 203 | –
anti-CD20 IgG1 T256N (antibody) | 229 | –
anti-CD20 IgG1 272R311I (antibody) | – | 396
anti-CD20 IgG1 D376N (antibody) | 94 | –
anti-CD20 IgG1 I332W (antibody) | 123 | –
anti-CD20 IgG1 H268D (antibody) | 68 | –
anti-CD20 IgG1 E430L (antibody) | 242 | –
anti-CD20 IgG1 268E332E (antibody) | – | 88
anti-CD20 IgG1 S254Y (antibody) | 0 | –
anti-CD20 IgG1 E430F (antibody) | 218 | –
